Laboratory results from article PMC8996488 (Journal of molecular biology, 2021).

B1: RecD subunit of E. coli RecBCD (enzyme, UniProt P04993 1-608, looked up)
chain: MKLQKQLLEAVEHKQLRPLDVQFALTVAGDEHPAVTLAAALLSHDAGEGHVCLPLSRLENNEASHPLLATCVSEIGELQNWEECLLASQAVSRGDEPTPMILCGDRLYLNRMWCNERTVARFFNEVNHAIEVDEALLAQTLDKLFPVSDEINWQKVAAAVALTRRISVISGGPGTGKTTTVAKLLAALIQMADGERCRIRLAAPTGKAAARLTESLGKALRQLPLTDEQKKRIPEDASTLHRLLGAQPGSQRLRHHAGNPLHLDVLVVDEASMIDLPMMSRLIDALPDHARVIFLGDRDQLASVEAGAVLGDICAYANAGFTAERARQLSRLTGTHVPAGTGTEAASLRDSLCLLQKSYRFGSDSGIGQLAAAINRGDKTAVKTVFQQDFTDIEKRLLQSGEDYIAMLEEALAGYGRYLDLLQARAEPDLIIQAFNEYQLLCALREGPFGVAGLNERIEQFMQQKRKIHRHPHSRWYEGRPVMIARNDSALGLFNGDIGIALDRGQGTRVWFAMPDGNIKSVQPSRLPEHETTWAMTVHKSQGSEFDHAALILPSQRTPVVTRELVYTAVTRARRRLSLYADERILSAAIATRTERRSGLAALFSSRE
B2: RecC subunit of E. coli RecBCD (natural protein, UniProt P07648 1-1122, looked up)
chain: MLRVYHSNRLDVLEALMEFIVERERLDDPFEPEMILVQSTGMAQWLQMTLSQKFGIAANIDFPLPASFIWDMFVRVLPEIPKESAFNKQSMSWKLMTLLPQLLEREDFTLLRHYLTDDSDKRKLFQLSSKAADLFDQYLVYRPDWLAQWETGHLVEGLGEAQAWQAPLWKALVEYTHQLGQPRWHRANLYQRFIETLESATTCPPGLPSRVFICGISALPPVYLQALQALGKHIEIHLLFTNPCRYYWGDIKDPAYLAKLLTRQRRHSFEDRELPLFRDSENAGQLFNSDGEQDVGNPLLASWGKLGRDYIYLLSDLESSQELDAFVDVTPDNLLHNIQSDILELENRAVAGVNIEEFSRSDNKRPLDPLDSSITFHVCHSPQREVEVLHDRLLAMLEEDPTLTPRDIIVMVADIDSYSPFIQAVFGSAPADRYLPYAISDRRARQSHPVLEAFISLLSLPDSRFVSEDVLALLDVPVLAARFDITEEGLRYLRQWVNESGIRWGIDDDNVRELELPATGQHTWRFGLTRMLLGYAMESAQGEWQSVLPYDESSGLIAELVGHLASLLMQLNIWRRGLAQERPLEEWLPVCRDMLNAFFLPDAETEAAMTLIEQQWQAIIAEGLGAQYGDAVPLSLLRDELAQRLDQERISQRFLAGPVNICTLMPMRSIPFKVVCLLGMNDGVYPRQLAPLGFDLMSQKPKRGDRSRRDDDRYLFLEALISAQQKLYISYIGRSIQDNSERFPSVLVQELIDYIGQSHYLPGDEALNCDESEARVKAHLTCLHTRMPFDPQNYQPGERQSYAREWLPAASQAGKAHSEFVQPLPFTLPETVPLETLQRFWAHPVRAFFQMRLQVNFRTEDSEIPDTEPFILEGLSRYQINQQLLNALVEQDDAERLFRRFRAAGDLPYGAFGEIFWETQCQEMQQLADRVIACRQPGQSMEIDLACNGVQITGWLPQVQPDGLLRWRPSLLSVAQGMQLWLEHLVYCASGGNGESRLFLRKDGEWRFPPLAAEQALHYLSQLIEGYREGMSAPLLVLPESGGAWLKTCYDAQNDAMLDDDSTLQKARTKFLQAYEGNMMVRGEGDDIWYQRLWRQLTPETMEAIVEQSQRFLLPLFRFNQS

Assays:
[1] = molecular target: T1, RecB subunit of E. coli RecBCD (134 kDa) (E. coli, UniProt P08394 1-1180); test: AUC
T1 sequence (looked up): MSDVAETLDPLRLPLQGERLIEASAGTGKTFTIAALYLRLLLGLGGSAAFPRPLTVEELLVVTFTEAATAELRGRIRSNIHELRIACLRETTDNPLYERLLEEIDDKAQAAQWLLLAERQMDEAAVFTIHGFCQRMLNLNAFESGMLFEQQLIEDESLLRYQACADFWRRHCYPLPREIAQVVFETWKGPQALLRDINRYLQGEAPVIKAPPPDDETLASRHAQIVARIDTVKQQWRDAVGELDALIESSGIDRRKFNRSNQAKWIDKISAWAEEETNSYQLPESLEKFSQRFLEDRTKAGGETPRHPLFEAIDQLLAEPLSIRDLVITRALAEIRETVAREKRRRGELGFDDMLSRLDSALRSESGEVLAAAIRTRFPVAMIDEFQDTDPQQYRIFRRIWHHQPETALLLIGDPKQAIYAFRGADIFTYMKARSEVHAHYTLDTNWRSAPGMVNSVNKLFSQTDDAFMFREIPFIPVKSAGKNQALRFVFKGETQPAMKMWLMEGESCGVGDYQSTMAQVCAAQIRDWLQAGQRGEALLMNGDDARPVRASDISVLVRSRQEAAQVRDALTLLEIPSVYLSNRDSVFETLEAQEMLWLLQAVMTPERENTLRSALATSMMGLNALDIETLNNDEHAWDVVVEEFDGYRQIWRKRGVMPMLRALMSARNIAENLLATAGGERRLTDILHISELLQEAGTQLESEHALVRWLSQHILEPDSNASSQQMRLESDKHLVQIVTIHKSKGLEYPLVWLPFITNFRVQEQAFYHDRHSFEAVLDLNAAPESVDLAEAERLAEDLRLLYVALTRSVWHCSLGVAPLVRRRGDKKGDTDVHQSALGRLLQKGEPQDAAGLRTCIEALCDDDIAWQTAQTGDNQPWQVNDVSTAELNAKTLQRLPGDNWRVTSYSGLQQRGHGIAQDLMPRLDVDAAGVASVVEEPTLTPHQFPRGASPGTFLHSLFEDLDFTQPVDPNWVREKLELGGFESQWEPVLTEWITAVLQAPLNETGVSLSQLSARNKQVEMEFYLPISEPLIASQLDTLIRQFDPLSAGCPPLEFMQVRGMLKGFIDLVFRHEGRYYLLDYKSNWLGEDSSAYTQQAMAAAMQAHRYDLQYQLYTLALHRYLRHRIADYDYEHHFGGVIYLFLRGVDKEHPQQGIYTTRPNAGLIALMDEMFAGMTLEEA

[2] = molecular target: B2; test: AUC

| Binder | binding result [1] | binding result [2] |
| --- | --- | --- |
| B1 | binds | binds |
| B2 | binds |  |
